The record followed here is publication PMC3175028 (2011).

The target in series [1] is T1, hedKR (Streptomyces griseoruber, UniProt Q67G28). As to the kind of experiment: steady-state kinetics of reduction. It counts as biochemical.
Series [2] addresses T1, hedKR. Kind of series: […] Å co-crystal structure. It counts as binding.
Series [3] concerns the target T1, hedKR. As to the kind of experiment: steady-state inhibition kinetics of trans-1-decalone reduction. It counts as biochemical.
Series [4] concerns O[C@H]1CCCc2ccccc21. Kind of series: steady-state kinetics of oxidation, A340. It counts as biochemical, Streptomyces griseoruber. To be noted: NADP+.

Broadly, the Km is the substrate concentration at which the rate is half of its maximum. On to `O=C1CCC[C@H]2CCCC[C@H]12` (relative stereo) [trans-1-decalone], for which the Km in series [1] is 591 ± 147 µM.

As to `NC(=O)C1=CN([C@@H]2O[C@H](COP(=O)(O)OP(=O)(O)OC[C@H]3O[C@@H](n4cnc5c(N)ncnc54)[C@H](OP(=O)(O)O)[C@@H]3O)[C@@H](O)[C@H]2O)C=CC1` [NADPH], the “2.4 Å co-crystal structure” value in series [2] is on record as “There is clear electron density for NADPH in each monomer of the crystal structure”.

For orientation: Ki means the equilibrium dissociation constant of an inhibitor or competing ligand from its target. Lower therefore signals higher affinity. `O=c1c(O)c(-c2ccc(O)c(O)c2)oc2cc(O)cc(O)c12` [compound 22, quercetin] showed a Ki in series [3] of around 114 µM.

The term kcat denotes the maximal rate divided by the concentration of active sites. Broadly, the kcat/Km is the second-order rate constant that governs catalysis at low substrate concentration. hedKR (Streptomyces griseoruber; N92L): in series [4], the Km came out at 4320 ± 521 µM, the kcat came out at 0.169 ± 0.00653 s⁻¹ and the kcat/Km was 39.1 ± 4.96 M⁻¹ s⁻¹.

For hedKR (Streptomyces griseoruber; N92P), in series [4], the Michaelis constant (Km) is 14100 ± 1360 µM, the kcat came to 0.0323 ± 0.00166 s⁻¹ and the kcat/Km turned out to be 2.29 ± 0.249 M⁻¹ s⁻¹.
